B1: wild type RNase J, BACTH fusions (pUT18 and pKNT25) [Helicobacter pylori] / wild type RNase J, BACTH fusions (pUT18 and pKNT25) [Helicobacter pylori] (parent)
chain 1: MTDNNQNNENHENSSENSKADEMRAGAFERFTNRKKRFRENAQKNAEYSNHEASSHHKKEHRPNKKPNNHHKQKHAKTRNYAQEELDSNKVEGVTEILHVNERGTLGFHKELKKGVEANNKIQVEHLNPHYKMNLNSKASVKITPLGGLGEIGGNMMVIETPKSAIVIDAGMSFPKEGLFGVDILIPDFSYLHQIKDKIAGIIITHAHEDHIGATPYLFKELQFPLYGTPLSLGLIGSKFDEHGLKKYRSYFKIVEKRCPISVGEFIIEWIHITHSIIDSSALAIQTKAGTIIHTGDFKIDHTPVDNLPTDLYRLAHYGEKGVMLLLSDSTNSHKSGTTPSESTIAPAFDTLFKEAQGRVIMSTFSSNIHRVYQAIQYGIKYNRKIAVIGRSMEKNLDIARELGYIHLPYQSFIEANEVAKYPDNEILIVTTGSQGETMSALYRMATDEHRHISIKPNDLVIISAKAIPGNEASVSAVLNFLIKKEAKVAYQEFDNIHVSGHAAQEEQKLMLRLIKPKFFLPVHGEYNHVARHKQTAISCGVPEKNIYLMEDGDQVEVGPAFIKKVGTIKSGKSYVDNQSNLSIDTSIVQQREEVASAGVFVATIFVNKNKQALLESSQFSSLGLVGFKDEKPLIKEIQGGLEVLLKSSNAEILNNPKKLEDHTRNFIRKALFKKFRKYPAIICHAHSF
chain 2: B1 chain 1

The variants in the experiment derive from B1. The experiment can be described thus: BACTH (bacterial two hybrid), beta-galactosidase read-out. To be noted: with wild type RNase J, in E. coli, RNJ WT on pUT18, mutant on pKNT25, n ≥ 6, parent: 430, read off a plot.
Take chain 1 E616A: the response turned out to be 220 Miller units.
Turning to chain 1 K609A, the response turned out to be 500 Miller units.
For the variant chain 1 E594A, the response was 440 Miller units.
The value for chain 1 K632A was 380 Miller units; that for chain 1 E661A was 180 Miller units; that for chain 1 E652A was 210 Miller units.
The value for chain 1 K647A was 130 Miller units; that for chain 1 E593A was 520 Miller units.
The value for chain 1 K658A was 220 Miller units.

The values are drawn from PMC10700544.
